From article PMC8673607, “ENAP1 retrains seed germination via H3K9 acetylation mediated positive feedback regulation of ABI5” (PLoS Genetics, 2021)

Target: T1, His-ABI5 (Arabidopsis, UniProt Q9SJN0 1-442)
T1 construct: ABI5, Arabidopsis, AT2G36270; CDS ligated to pET28a; source: E. coli, purified (Ni-NTA agarose)
T1 sequence (looked up): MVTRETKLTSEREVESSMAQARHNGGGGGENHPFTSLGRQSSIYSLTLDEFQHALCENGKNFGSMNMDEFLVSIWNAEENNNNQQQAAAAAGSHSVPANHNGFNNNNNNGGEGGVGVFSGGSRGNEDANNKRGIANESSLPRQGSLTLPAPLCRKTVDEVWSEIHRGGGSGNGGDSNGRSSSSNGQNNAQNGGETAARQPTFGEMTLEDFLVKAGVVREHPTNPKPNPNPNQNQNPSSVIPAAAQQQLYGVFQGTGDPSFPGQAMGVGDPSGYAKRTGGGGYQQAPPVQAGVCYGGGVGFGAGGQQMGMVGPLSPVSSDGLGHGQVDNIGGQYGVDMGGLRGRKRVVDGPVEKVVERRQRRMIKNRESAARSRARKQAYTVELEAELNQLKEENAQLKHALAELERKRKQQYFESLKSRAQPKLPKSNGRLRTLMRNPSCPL
Test: pull-down; His-ABI5 purified with Ni-NTA agarose incubated with dialyzed MBP fused proteins 1h at 4°C; column buffer 20 mM Tris-HCl pH 7.4, 0.2 M NaCl, 1 mM EDTA; blots with anti-His and anti-MBP
Settings: both partners purified

B1: MBP-ENAP1 (natural protein, Arabidopsis, UniProt Q8VZI9 1-249, looked up)
chain: METTPETQSKTHRLPAGREDWWSEDATATLIEAWGDRYVNLNRGNLRQNDWKEVADAVNSSHGNGRPKTDVQCKNRIDTLKKKYKTEKAKPLSNWCFFDRLDFLIGPVMKKSSGAVVKSALMNPNLNPTGSKSTGSSLDDDDDDDDDDEEDDDDAGDWGFVVRKHRKVEDVDSSEGSAFRELARSILKLGEAFERIEGKKQQMMIELEKQRMEVAKELELQRMNMLMEMQLELEKSKLGKRRAASGKKL
notes: ENAP1, Arabidopsis, At3G11100; CDS ligated to pVP13 (Gateway vector, His tag removed); source: E. coli, purified (amylose resin, eluted with maltose, dialyzed)
B1: binds.
